Laboratory results reported in patent publication US20150307628A1.

Key:
[1] = biological target: dummy-Fc heavy chain constant region with CH3B of mutant EW-RVT (S-S) (Q347R/S354C/D399V/F405T) (human) [IgG part: P0DOX5]; test: non-reducing SDS-PAGE, EW-RVT (S-S) against EW-RVT
[2] = biological target: dummy-Fc heavy chain constant region with CH3B of mutant SW-WVT (S-S) (Y349C/E357W/D399V/F405T) (human) [IgG part: P0DOX5]; test: non-reducing SDS-PAGE, SW-WVT (S-S) against SW-WVT

| Substance | greater heterodimer formability than the variant without disulfide bridge [1] [%] | greater heterodimer formability than the variant without disulfide bridge [2] [%] |
| --- | --- | --- |
| hAY4a scFv-Fc heavy chain with CH3A of mutant EW-RVT (S-S) (Y349C/K360E/K409W) (from UniProt P0DOX5 227-449) (Fc fusion) | 3 |  |
| hAY4a scFv-Fc heavy chain with CH3A of mutant SW-WVT (S-S) (Y349S/S354C/K409W) (from UniProt P0DOX5 227-449) (Fc fusion) |  | 9 |
